The record followed here is the Human Domainome abundance scans (Beltran et al. 2025).

The labels stand for the following.
B1: Chromodomain-helicase-DNA-binding protein 4, residues 623 to 675; numbered along this chain, Q14839 (parent)
chain: MIHRILNHSVDKKGHVHYLIKWRDLPYDQASWESEDVEIQDYDLFKQSYWNHR

± gives the uncertainty stated by the source.

Variants of B1 are the subject of this data set. Nature of the data set: abundance fitness (aPCA) (normalised: wild type 0, dead -1); higher = more abundant; growth selection in yeast, the domain comes from the species named. Particulars: Homo sapiens.
In the case of D43L, the abundance fitness is -0.423 ± 0.084.

Regarding D43W, the abundance fitness is -0.219 ± 0.13.

Consider D43I, for which the abundance fitness was -0.862 ± 0.25.

On to D43H, for which the abundance fitness was -0.186 ± 0.13.

For D43Q, the abundance fitness is -0.047 ± 0.11.

On to D43A, for which the abundance fitness was -0.205 ± 0.081.

As to D43K, the abundance fitness was -0.456 ± 0.14.

For the variant D43E, the abundance fitness was 0.099 ± 0.1.

Take D43S: the abundance fitness is -0.307 ± 0.088.

D43G: the abundance fitness is -0.147 ± 0.092.

For the variant D43N, the abundance fitness is -0.161 ± 0.12.

On to D43C, for which the abundance fitness was -0.236 ± 0.16.

Take D43R: the abundance fitness was -0.577 ± 0.1.

With D43Y, the abundance fitness was -0.253 ± 0.15.

As to D43T, the abundance fitness was -0.367 ± 0.12.

As to D43F, the abundance fitness is -0.394 ± 0.16.

Take Y49L: the abundance fitness is -0.751 ± 0.12.

With Y49C, the abundance fitness is -1.01 ± 0.18.

Regarding Y49F, the abundance fitness was -0.7 ± 0.18.

Regarding Y49M, the abundance fitness is -0.747 ± 0.13.

In the case of Y49Q, the abundance fitness is -0.997 ± 0.21.

As to Y49G, the abundance fitness is -0.811 ± 0.1.

On to Y49A, for which the abundance fitness was -0.783 ± 0.12.

Consider Y49K, for which the abundance fitness is -0.658 ± 0.15.

On to Y49W, for which the abundance fitness was -0.951 ± 0.15.

For the variant Y49R, the abundance fitness is -1 ± 0.13.

As for Y49T, the abundance fitness is -0.916 ± 0.11.

Consider Y49S, for which the abundance fitness was -0.953 ± 0.13.

For the variant Y49I, the abundance fitness is -1.13 ± 0.24.

Regarding Y49V, the abundance fitness is -0.877 ± 0.1.

With Y49P, the abundance fitness is -0.696 ± 0.15.

As for W50Y, the abundance fitness was -0.554 ± 0.25.

In the case of W50K, the abundance fitness is -0.511 ± 0.17.

For W50L, the abundance fitness was -0.811 ± 0.11.

In the case of W50C, the abundance fitness is -0.793 ± 0.12.

For the variant W50R, the abundance fitness is -0.725 ± 0.089.

With W50Q, the abundance fitness is -0.959 ± 0.27.

With W50D, the abundance fitness was -1.23 ± 0.26.

For W50G, the abundance fitness was -0.813 ± 0.083.

Regarding W50F, the abundance fitness is -0.861 ± 0.17.

W50H: the abundance fitness was -0.779 ± 0.26.

Take W50T: the abundance fitness is -0.733 ± 0.17.

Consider W50P, for which the abundance fitness is -0.824 ± 0.19.

For the variant W50N, the abundance fitness was -0.766 ± 0.24.

In the case of W50I, the abundance fitness was -0.813 ± 0.21.

For the variant W50S, the abundance fitness was -0.653 ± 0.11.

As for W50A, the abundance fitness is -0.808 ± 0.13.

On to W50V, for which the abundance fitness is -0.783 ± 0.099.

As for W50E, the abundance fitness is -0.879 ± 0.17.

As for Q47A, the abundance fitness was -0.114 ± 0.1.

With Q47M, the abundance fitness is -0.452 ± 0.14.

On to Q47I, for which the abundance fitness amounted to 0.132 ± 0.12.

Consider Q47G, for which the abundance fitness was -0.483 ± 0.088.

On to Q47R, for which the abundance fitness is -0.084 ± 0.078.

As for Q47N, the abundance fitness is 0.087 ± 0.11.

Turning to Q47L, the abundance fitness was -0.374 ± 0.094.

Turning to Q47Y, the abundance fitness was -0.343 ± 0.16.

Take Q47C: the abundance fitness is -0.423 ± 0.096.

Turning to Q47T, the abundance fitness came out at 0.022 ± 0.099.

For the variant Q47F, the abundance fitness is -0.318 ± 0.13.

Regarding Q47S, the abundance fitness is -0.05 ± 0.081.

For Q47D, the abundance fitness was -0.289 ± 0.11.

Turning to Q47H, the abundance fitness is -0.051 ± 0.14.

In the case of Q47W, the abundance fitness is -0.475 ± 0.11.

Consider Q47E, for which the abundance fitness was -0.052 ± 0.11.

On to Q47P, for which the abundance fitness is -0.804 ± 0.16.

Take Q47K: the abundance fitness was 0.239 ± 0.12.

For the variant H52S, the abundance fitness is 0.106 ± 0.1.

For H52T, the abundance fitness stood at 0.185 ± 0.14.

Regarding H52P, the abundance fitness was -0.363 ± 0.15.

With H52G, the abundance fitness is 0.022 ± 0.082.

Consider H52Y, for which the abundance fitness is -0.254 ± 0.12.

H52V: the abundance fitness is -0.016 ± 0.11.

On to H52M, for which the abundance fitness was -0.18 ± 0.13.

For H52D, the abundance fitness is -0.177 ± 0.15.

On to H52R, for which the abundance fitness turned out to be 0.058 ± 0.08.

For H52N, the abundance fitness worked out at 0.023 ± 0.18.

In the case of H52L, the abundance fitness is -0.017 ± 0.13.

Take H52C: the abundance fitness was -0.103 ± 0.13.

On to H52I, for which the abundance fitness was -0.29 ± 0.15.

Turning to H52E, the abundance fitness stood at 0.139 ± 0.16.

As for H52K, the abundance fitness came to 0.088 ± 0.18.

As for E33K, the abundance fitness is -0.072 ± 0.13.

E33V: the abundance fitness turned out to be 0.036 ± 0.11.

For E33L, the abundance fitness is -0.164 ± 0.084.

Turning to E33N, the abundance fitness was -0.651 ± 0.21.

Regarding E33F, the abundance fitness is -0.528 ± 0.13.

Take E33D: the abundance fitness is -0.947 ± 0.24.

With E33R, the abundance fitness is -0.254 ± 0.095.

For E33G, the abundance fitness is -0.781 ± 0.17.

For E33I, the abundance fitness is 0.101 ± 0.15.

Take E33Q: the abundance fitness was -0.152 ± 0.11.

Turning to E33A, the abundance fitness is -0.109 ± 0.11.

With E33Y, the abundance fitness was -0.406 ± 0.15.

In the case of E33C, the abundance fitness amounted to 0.13 ± 0.14.

Consider E33P, for which the abundance fitness was -0.895 ± 0.16.

Take E33W: the abundance fitness was -0.566 ± 0.13.

As to E33H, the abundance fitness was -0.266 ± 0.16.

E38G: the abundance fitness is -0.227 ± 0.1.

As for E38T, the abundance fitness is -0.187 ± 0.098.

Consider E38V, for which the abundance fitness was -0.217 ± 0.085.

In the case of E38I, the abundance fitness was -0.122 ± 0.11.

As to E38S, the abundance fitness was -0.157 ± 0.087.

For the variant E38D, the abundance fitness was -0.175 ± 0.15.

As for E38P, the abundance fitness is -0.2 ± 0.11.

With E38Y, the abundance fitness was -0.337 ± 0.14.

For the variant E38F, the abundance fitness is -0.113 ± 0.11.

Regarding E38H, the abundance fitness is -0.324 ± 0.14.

For E38L, the abundance fitness was -0.199 ± 0.086.

As to E38R, the abundance fitness is -0.37 ± 0.091.

With E38M, the abundance fitness was -0.095 ± 0.13.

Turning to E38W, the abundance fitness was -0.257 ± 0.12.

On to E38C, for which the abundance fitness was -0.144 ± 0.13.

E38N: the abundance fitness is -0.472 ± 0.16.

With E38Q, the abundance fitness was -0.018 ± 0.15.

Regarding V37W, the abundance fitness is -0.985 ± 0.21.

Regarding V37C, the abundance fitness turned out to be 0.117 ± 0.1.

For the variant V37R, the abundance fitness was 0.212 ± 0.089.

V37H: the abundance fitness is -0.126 ± 0.087.

For the variant V37E, the abundance fitness is -0.039 ± 0.16.

Turning to V37T, the abundance fitness is -0.001 ± 0.083.

V37Y: the abundance fitness is -0.361 ± 0.1.

Consider V37I, for which the abundance fitness is -0.217 ± 0.089.

Turning to V37M, the abundance fitness came to 0.171 ± 0.11.

As to V37K, the abundance fitness amounted to 0.182 ± 0.14.

As to V37G, the abundance fitness is -0.246 ± 0.095.

As for V37F, the abundance fitness is -0.166 ± 0.097.

As to V37A, the abundance fitness was determined as 0.109 ± 0.077.

Take V37Q: the abundance fitness is 0.052 ± 0.14.

V37L: the abundance fitness was -0.058 ± 0.075.

Consider V37P, for which the abundance fitness is -0.746 ± 0.11.

Regarding V37D, the abundance fitness is -0.262 ± 0.1.

Take V37N: the abundance fitness was 0.155 ± 0.088.

On to F45H, for which the abundance fitness was 0.119 ± 0.09.

Consider F45E, for which the abundance fitness is -0.735 ± 0.28.

Regarding F45R, the abundance fitness was -0.757 ± 0.099.

With F45W, the abundance fitness was -0.279 ± 0.13.

Turning to F45A, the abundance fitness was -0.013 ± 0.085.

On to F45C, for which the abundance fitness is -0.306 ± 0.11.

With F45S, the abundance fitness was -0.444 ± 0.077.

For the variant F45D, the abundance fitness is -0.568 ± 0.12.

Regarding F45K, the abundance fitness was -0.391 ± 0.15.

For F45P, the abundance fitness is -0.857 ± 0.11.

Consider F45I, for which the abundance fitness is -0.423 ± 0.085.

Regarding F45V, the abundance fitness was -0.616 ± 0.1.

For F45L, the abundance fitness was -0.388 ± 0.08.

F45N: the abundance fitness is -0.627 ± 0.12.

Turning to F45M, the abundance fitness was -0.283 ± 0.13.

Consider F45T, for which the abundance fitness is -0.64 ± 0.12.

In the case of F45Q, the abundance fitness was -0.71 ± 0.16.

F45G: the abundance fitness was -0.856 ± 0.12.

For the variant N51R, the abundance fitness is 0.105 ± 0.089.

For N51I, the abundance fitness is -0.564 ± 0.23.

For N51W, the abundance fitness was -0.45 ± 0.12.

For the variant N51H, the abundance fitness was -0.23 ± 0.14.

Take N51T: the abundance fitness stood at 0.037 ± 0.13.

In the case of N51K, the abundance fitness is -0.167 ± 0.13.

On to N51Q, for which the abundance fitness stood at 0.004 ± 0.14.

For the variant N51A, the abundance fitness was determined as 0.014 ± 0.1.

Take N51M: the abundance fitness turned out to be 0.01 ± 0.12.

On to N51F, for which the abundance fitness was -0.11 ± 0.2.

On to N51D, for which the abundance fitness is 0.01 ± 0.16.

As to N51Y, the abundance fitness was -0.267 ± 0.21.

In the case of N51V, the abundance fitness was -0.341 ± 0.1.

Consider N51S, for which the abundance fitness is -0.079 ± 0.1.

In the case of N51L, the abundance fitness is -0.194 ± 0.089.

With N51C, the abundance fitness was -0.428 ± 0.15.
